Data reported in article PMC9253517 (The Journal of Experimental Medicine, 2022).

B1: JR233 (antibody, V domains shown)
VH: QVQRVQSGAEVKKPGSSVKVSCKASGGTFSSYAFSWVRQAPGQGLEWMGGIIPILRIADYAQKFQGRVTITADKSTSTAFMELSSLRSEDTAVYYCARGQIELVPAARVDYFDYWGQGTLVTVSS
VL: DIQLTQSPSSLSASVGDRVTITCRASQSISSYLNWYQQKPGKAPKLLIYAASSLQSGVPSRFSGSGSGTDFTLTISSLQPEDFATYYCQQSYTTSFGPGTKVDIK
B2: JR042 (antibody, V domains shown)
VH: EVQLVESGGGLIQPGGSLRLSCVASGVTVSSNYMSWVRQAPGKGLEWVSVIYPGGTTYYADSVKGRFTISRDNSKNTLYLQMTSLRAEDTAVYYCARGGDYHYGMDVWGQGTTVTVSS
VL: DIQLTQSPSFLSASVGDRVTITCRASQGISSYLAWYQQKPGKAPKLLIYAASTLQSGVPSRFSGSGSGTEFTLTISSLQPEDFATYYCQLLNSYPPTFGQGTKLEIK
B3: JR328 (antibody, V domains shown)
VH: EVQLVESGGGLIQPGGSLRLSCAASGVIVSRNYMSWVRQAPGKGLEWVAVIYSGGSTFYADSVKGRFTISRDDSKNTLFLQMNALRAEDTAVYYCARDGDYYGMDVWGRGTTVTVSS
VL: DIQLTQSPSFLSASVGDRVTITCRASQGISNYLAWYQQKPGTAPRLLIYAAFTLQSGVPSRFSGSGSGTEFTLTISSLQPEDFATYYCQQLNTYPGFTFGPGTKVDIK
B4: JR174 (antibody, V domains shown)
VH: QVQLVQSGAEVKKPGSSVKVSCKASGGTFSSYAISWVRQAPGQGLEWMGGIIPIFGTAHYAQKFQGRVTITADESTSTAYMELSSLRSEDTAVYFCARDLGGIQLYLLAYWGQGTLVTVSS
VL: EIVLTQSPVTLSLSPGERATLSCRASQSVSSTYLAWYQQKPGQAPRLLIYGASSRATGIPDRFSGSGSGTDFTLTISRLEPEDFAVYYCQQYVGSPGTFGQGTKVEIK
B5: JR039 (antibody, V domains shown)
VH: QLQLQESGPGLVKPSETLSLTCTVSGGSISSSSYYWGWIRQPPGKGLEWIGSIYYSGSTYYNPSLKSRVSISVDTSKNQFSLKLSSVTAADTAVYYCARPGPAYYDRSGYYRAEYFQRWGQGTLVTVSS
VL: AIRMTQSPSSLSASVGDRVTITCQASQDISDYLSWYQQKPGKAPKLLIYDASNLETGVPSRFSGSGSGTDFTFTISSLQPEDIATYYCQQYDNLPLTFGGGTKVEIK
B6: JR177 (antibody, V domains shown)
VH: QVQLVESGGGVVQPGRSLRLSCAASGFTLSSYAMHWVRQAPGKGLEWVALILYDGSNKYYADSVKGRFTISRDNSKNTVYLQMNSLRAEDTAVYYCARVRVWGRVVVAASFYYGMDVWGQGTTVTVSS
VL: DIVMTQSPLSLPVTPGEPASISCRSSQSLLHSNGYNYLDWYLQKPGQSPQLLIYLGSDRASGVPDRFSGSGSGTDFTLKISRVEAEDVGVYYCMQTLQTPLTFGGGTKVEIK
B7: JR043 (antibody, V domains shown)
VH: QVQLVQSGAEVKKPGASVKVSCKASGYTFTRNYMHWVRQAPGQGLEWMGIINPSGGSTSYAQKFQGRVTMTRDTSTSTVYMELSSLRSEDTAVYYCARVDSSSWSHCDYWGQGTLVTVSS
VL: DIQLTQSPSSLSASVGDRVTITCRASQSISTYLNWYQQNPGKAPKLLIYGASNLQSGVPSRFSGSGSGTDFTLTISSLQPEDFATYYCQQSYSTLEITFGQGTRLEIK
B8: JR216 (antibody, V domains shown)
VH: QLQLQESGPGLVKPSETLSLTCTVSGGSISSGSYFWGWIRQPPGKGLEWIGNIYNSGSTYYSPSLKSRVTISVNTSKNQFSLKMSSVTAADTAVYYCARQPWLRSQFDYWGQGTLVTVSS
VL: NFMLTQPHSVSESPGKTVTISCTGSSGSIASNYVQWYQQRPGSAPTNVIYEDNQRPSGVPDRFSGSIDSSSNSASLTISGLKTEDEADYYCQSYDSSTVVFGGGTKLTVL
B9: JR215 (antibody, V domains shown)
VH: QVQLVQSGAEVKKPGASVKVSCKASGYTFTGYYMHWVRQAPGQGLEWMGRINPNSGDTNFPQKFQGRVTMTRDTSISTAYMELSRLRSDDTAVYYCARDGVADFNYDYWGQGTLVTVSS
VL: LTQPASVSGSPGQSITISCTGSSSDVGSYNLVSWYQQHPGKAPKLMIYEVSRRPSGVSNRFSGSKSGNTASLTISGLQAEDEADYYCCSYAGSSTWEVLFGGGTKLTVL
B10: JR041 (antibody, V domains shown)
VH: EVQLVESGGGLVQPGRSLRLSCAASGFTFDDYAMYWVRQAPGKGLEWVSGISWNSGSIGYADSVKGRFTISRDNAKNSLYLQMNSLRAEDTALYYCAKDISYHTGTIDYWGQGTLVTVSS
VL: QSALTQPASVSGSPGQSITISCTGTSSDIGGYNYVSWYQQHPGKAPKLMIYDVSNRPSGVSNRFSGSKSGNTASLTISGLQAEDEADYYCSSYTSSSTLGVGGGTKLTVL
B11: JR088 (antibody, V domains shown)
VH: QVQLQQSGPGLVKPSQTLSLTCAISGDSVSSDSAAWNWIRQSPSRGLEWLGRTYYRSKWSNDYEVSVKSRITINPDTSKNQFSLQLNSVTPEDTAVYYCAKQQLVLDDAFDIWGQGTMVTVSS
VL: QSALTQPRSVSGSPGQSVTISCTGTSSDVGGHNYVSWYEQHPGKAPKLMMYDVSKRPSGVPDRFSGSKSGNTASLTISGLQAEDEADYYCCSYAGSYIWVFGGGTKLTVL
B12: JR086 (antibody, V domains shown)
VH: QVQLVQSGAEVKKPGASVKVSCKASGYTFTGYYMHWVRQAPGQGLEWMGWINPISGATNYAQKFQGGVTMTRDTSISTAYMELSRLRSDDTAVYYCARVNHIVVVTAIDPIYGMDVWGQGTTVTVSS
VL: QSALTQPASVSGSPGQSITISCTGTSSDVGGYNYVSWYQQHPGKAPKLMIYEVSNRPSGVSNRFSGSKSGNTASLTISGLQAEDEADYYCSSYTSSSTLYYVFGTGTKVTVL
B13: JR173 (antibody, V domains shown)
VH: EVQLVESGGGLVQPGRSLRLSCAASGFTFDDYAMHWVRQAPGKGLEWVSGISWNSGRKGYADSVKGRFTISRDNAKNSLHLQMNSLRAEDTALYYCAKDIQEAIEVSSIGFDYWGQGTLVTVSS
VL: QSVLTQPPSVSGAPGQRVTISCTGSSSNIGAGYDVHWYQQLPGTAPKLLIYGNSNRPSGVPDRFSGSKSGTSASLAITGLQAEDEADYYCQSYDSSLSGYAVFGGGTQLTVL
B14: JR309 (antibody, V domains shown)
VH: EVQLVESGGGLVQPGRSLRLSCAASGFTFDDYAIHWVRQAPGKGLEWVSGSSWNSGTIGYADSVKGRFTISRDNAKNSLYLQMNSLRAEDTALYYCAKDWGTGDYNSYYFDYWGQGTLVTVSS
VL: SYELTQPPSVSVAPGKTARITCGGNNIGSKSVHWYQQKPGQAPVVVVYDDSDRPSGNPERFSGSNSGNTATLTIRRVEAGDEADYYCQVWDSNSDQYVFGTGTKVTVL

Legend:
[1] = biological target: T1, SARS-CoV-2 Wuhan-Hu-1 RBD (SARS-CoV-2, Wuhan-Hu-1 (GenBank …, UniProt P0DTC2)); assay: cell-based or functional assay
[2] = biological target: T1, SARS-CoV-2 Wuhan-Hu-1 RBD; assay: BLI; details: both partners purified

Binder | neutralisation IC50, Wuhan-Hu-1 pseudovirus [1] [ng/mL] | binding result [2]
B1 | 9.33 | binds
B2 | 20.9 | binds
B3 | 16.7 | 
B4 | 79.8 | binds
B5 | 21.9 | binds
B6 | 3.28 | binds
B7 | 5.87 | binds
B8 | 45.8 | binds
B9 | 44.8 | binds
B10 | 54.7 | binds
B11 | 38.1 | binds
B12 | 35.8 | binds
B13 | 16.6 | binds
B14 | 15.5 | binds
